In patent US20240067721A1 (UNIVERSITY OF BIRMINGHAM, published 2024):
Numbering of substitutions follows the chain as printed.

B1: Nanobody 28 (Nb28) (VHH)
VHH: QVQLQESGGGLVQAGDSLRLSCAASGTYSMGWFRQAPGKEREFVAAISWSGGRTNYADSVKGRFTISRDNAKNTVYLQMNSLKPEDTAVYYCSAAIYDNVSSRIGSYTYWGQGTQVTVSS
B2: Nanobody 35 (Nb35), with C-terminal HA and His tags (VHH)
VHH: QVQLQESGGGLVQAGGSLRLSCAASGVTFDSAAMAWFRQVPGKEREFVAVISTESGGRTDHADSVKGRFLISRDNARHMVYLQMNSLNPEDTAVYYCASSLLYCSASGCYANRDSYDYWGQGTQVTVSSAAAYPYDVPDYGSHHHHHH
B3: Nanobody 19 (Nb19) (VHH)
VHH: QVQLQESGGGLVQAGGSLRLSCAASGRTFSSDAMGWFRQAPGKEREFVAAIRWSGGSTYYADSVKGRFTISRGNAKNTVYLQMNSLKPEDTAVYYCASSLLNSYYPPDHTSYEYDYWGQGTQVTVSSAAAYPYDVPDYGSHHHHHH
B4: Nanobody 5 (Nb5) (VHH)
VHH: QVQLQESGGGLVQPGGSLRLSCAASGFTLDSHTIGWFRQAPGKEREGVSGINSSDGSTYYADSVKGRFTISRDNAKNTVYLQMDSLKVEDTAVYYCATTPFSLRGPTWVTPDEFDYWGQGTQVTVSSAAAYPYDVPDYGSHHHHHH
B5: Nanobody 2 (Nb2), with C-terminal HA and His tags (VHH)
VHH: QVQLQESGGGLVQPGGSLRLSCAAAGFTFDYYAIAWFRQAPGKEREGVSCISSSDGTTYYADSVKGRFTISKDNAKNTMYLQMNSLKPEDTAVYYCATSPLYSTNDRCISEDYDYWGQGTQVTVSSAAAYPYDVPDYGSHHHHHH
notes: Tagged form (detected with anti-His in ELISA and flow cytometry)
B6: Nanobody 25 (Nb25) (VHH)
VHH: B5 VHH with A25S, F29L, Y31N, A35G, T57R, K72R, T104D, N105S, S110W, D112E
B7: Nanobody 21 (Nb21), with C-terminal HA and His tags (VHH)
VHH: QVQLQESGGGLVQPGGSLRLSCAASGRTFTRSIMGWFHQAPGKEREFLAGISWSGANTYYADSVRGRFTISRDNAKNTVSLQMNSLNPEDTAVYYCAADPSHPGSLISTRRSDYDSWGRGTQVTVSSAAAYPYDVPDYGSHHHHHH
B8: Nanobody 1 (Nb1) (VHH)
VHH: QVQLQESGGGLVQAGGSLRLSCASSGFTFSGYQLAWFRHVAPGKEREFVAAIRWSGGITWYADSVKGRFTISRDNAKNTMYLQMNSLKPEETAVYYCAASPLYSNNYLLPDNYDYWGQGTQVTVSSAAAYPYDVPDYGSHHHHHH
B9: Nanobody 44 (Nb44) (VHH)
VHH: QVQLQESGGGLVQPGGALRLSCAASGFTLDYYAIGWFRQAPGKEREAVSCISSSDGSTYYADSVKGRFTISRDNAKNTVYLQMNSLKPEDTAVYYCATDPFYSDINCKSYEYAYWGQGTQVTVSSAAAYPYDVPDYGSHHHHHH
B10: Nanobody 22 (Nb22) (VHH)
VHH: QVQLQESGGGLVQAGGSLRLSCAPSGRTISSVDVGWFRQAPGKEREFVAHVTWSGGSTYAADSVKGRFTVSRDNAKNTVYLQMNSLKPEDTAVYYCAAALNGAFRDSWYPALWDEYDYWGQGTQVTVSSAAAYPYDVPDYGSHHHHHH
B11: Nanobody 33 (Nb33) (VHH)
VHH: QVQLQESGGGLVQAGDSLRLSCAASGRTFSSYVMGWFRQAPGKEREFVAAISWSGGSTYYADSVKGRFTISRDNAKNTVYLQMNSLKPEDTAVYYCAAADPPSFYSDYDWPRDHEYDYWGQGTQVTVSSAAAYPYDVPDYGSHHHHHH

Assays:
[1] = target: full length GPVI on transfected DT40 cells (with FcR-γ chain) (UniProt Q9HCN6); assay: cell-based or functional assay
[2] = target: T1, recombinant GPVI-Fc (dimeric; D1 and D2 domains of GPVI fused to the Fc domain from IgG) (human, UniProt Q9HCN6 22-203); assay: solid-phase binding assay: GPVI-Fc coated surface, nanobody 100 nM per the legend (1 µM per paragraph 122), anti-His HRP, Fc-surface signal subtracted, normalised to Nb35 [cont) b]
T1 construct: range 22-203; also called GPVI-Fcγ; dimeric GPVI; not shown: Factor Xa cleavable junction and Fc domain from IgG (Sigplg+ vector)
T1 sequence (looked up): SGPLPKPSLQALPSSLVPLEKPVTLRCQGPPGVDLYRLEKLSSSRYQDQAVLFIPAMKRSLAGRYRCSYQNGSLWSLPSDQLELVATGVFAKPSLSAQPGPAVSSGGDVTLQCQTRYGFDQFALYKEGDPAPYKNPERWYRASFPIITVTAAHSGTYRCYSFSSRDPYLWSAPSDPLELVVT
Method: FIG. 1. […] Results were plotted as a percentage of total signalling in the presence of collagen only. Dotted lines represent 100, 60 and 20% signalling levels. Data represent mean values of three experiments performed in triplicate±standard deviation. b) Surface binding assay of one nanobody (100 nM) from each family binding to a GPVI-Fc coated-surface. All the binding results have been normalised to Nb35 which gave the highest readout. Binding of each nanobody to the Fc domain-coated surface was tested and subtracted from the GPVI-Fc readings. Binding was detected using HRP conjugated anti-His antibody. The average binding of all the nanobodies to BSA represents a non-specific binding control. Data represent mean values of three experiments±standard deviation.
The recombinant GPVI used for immunisation and testing consisted of the extracellular D1 and D2 domains fused with the Fc domain from IgG. Immunisation with GPVI-Fc yielded 54 distinct nanobody sequences. The Fc domain was used to test whether the nanobodies recognise this region. The 54 nanobodies were categorized into 33 distinct binding classes on the basis of their complementary determining loop (CDR) 3 regions, which is the region that confers ligand specificity. Nanobodies (1 μM) from each binding class were tested for their ability to recognise a recombinant GPVI-Fc coated surface (FIG. 1b). The degree of nanobody binding varied between classes and could be categorised into strong (>50%), moderate (>20%) and weak binders (<20%). Strong binders included Nb2, 21, 35 and 52. Moderate binders included Nb7, 18, 28 and 54. All other nanobodies were considered to be weak binders.

[3] = target: T1, recombinant GPVI-Fc (dimeric; D1 and D2 …); assay: solid-phase binding assay, displacement of GPVI-Fc (100 nM) from a collagen surface
[4] = target: T2, GPVI on human washed platelets (human, UniProt Q9HCN6 21-339); assay: cell-based or functional assay
T2 sequence (looked up): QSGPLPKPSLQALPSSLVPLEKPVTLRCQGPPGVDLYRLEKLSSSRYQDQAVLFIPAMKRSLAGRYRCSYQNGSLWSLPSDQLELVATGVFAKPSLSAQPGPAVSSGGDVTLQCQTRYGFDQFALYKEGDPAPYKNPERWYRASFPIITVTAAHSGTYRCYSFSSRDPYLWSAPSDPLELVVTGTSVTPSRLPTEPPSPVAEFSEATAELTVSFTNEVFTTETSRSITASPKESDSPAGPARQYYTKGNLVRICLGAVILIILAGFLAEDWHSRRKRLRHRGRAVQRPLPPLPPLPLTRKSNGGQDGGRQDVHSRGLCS

[5] = target: T3, full length GPVI on transfected DT40 cells (with FcR-γ chain) (UniProt Q9HCN6 21-339); assay: cell-based or functional assay
T3 sequence (looked up): T2 sequence (looked up)

[6] = target: T1, recombinant GPVI-Fc (dimeric; D1 and D2 …); assay: SPR (Biacore T200), GPVI-Fc amine-coupled on CM5 chip, Nb2 in solution, 1:1 kinetic fit
Method: Surface plasmon resonance experiments were performed using a Biacore T200 instrument (GE Healthcare). GPVI was immobilised directly onto the CM5 chip using amine-coupling. Reference surfaces were blocked using 1M ethanolamine pH 8. All sensograms shown are double reference subtracted and at least two replicates were injected per cycle as well as experimental replicates of n=3. Experiments were performed at 25° C. with a flow rate of 30 μL/min in HBS-P running buffer (10 mM HEPES pH 7.4, 0.15 M NaCl, 0.005% v/v surfactant P20). Each concentration of Nb2 was run as follows; 120 sec injection, 900 sec dissociation. Kinetic analysis was performed using the Biacore T200 Evaluation software using a global fitting to a 1:1 binding model.

[7] = target: monomeric GPVI (GPVI-Fc cleaved with Factor Xa, Fc removed) (human) (UniProt Q9HCN6); assay: SPR (Biacore T200), GPVI amine-coupled on CM5 chip, Nb2 in solution, 1:1 kinetic fit; immobilised monomeric GPVI, not GPVI-Fc
[8] = target: T1, recombinant GPVI-Fc (dimeric; D1 and D2 …); assay: solid-phase binding assay, displacement of GPVI-Fc (100 nM) from a collagen surface (legend of Fig. 4a; differs from the text)

Molecule | binding result [2] | inhibition of collagen-stimulated NFAT reporter activity (nanobody 100 nM, collagen 10 µg/ml) [5] [%] | also measured
collagen (Horm collagen I, fibrillar) (ligand) |  |  | fold increase in NFAT activity (luciferase reporter) [1]: 8.3 fold
B1 | binds |  | 
B2 |  |  | IC50 [3]: 0.039 µM; IC50, inhibition of washed platelet aggregation to CRP (10 µg/ml) [4]: 0.001 µM; IC50, inhibition of washed platelet aggregation to collagen (5 µg/mL) [4]: 0.115 µM
B3 | binds | > 40 | 
B4 |  | > 40 | 
B5 |  |  | Kd [6]: 0.0007 µM; IC50 [3]: 0.018 µM; inhibition of collagen-stimulated NFAT reporter activity (nanobody 100 nM, collagen 10 µg/ml) [1]: > 80%; Kd [7]: 0.00058 µM; IC50, inhibition of washed platelet aggregation to CRP (10 µg/ml) [4]: 0.001 µM; IC50, inhibition of washed platelet aggregation to collagen (5 µg/mL) [4]: 0.172 µM
B6 | binds | > 40 | 
B7 |  | > 80 | IC50 [8]: 0.062 µM; IC50 [3]: 0.061 µM; IC50, inhibition of washed platelet aggregation to CRP (10 µg/ml) [4]: 0.022 µM; IC50, inhibition of washed platelet aggregation to collagen (5 µg/mL) [4]: 0.085 µM
B8 |  | > 40 | 
B9 | binds | > 40 | 
B10 | binds | > 40 | 
B11 | binds | > 40 | 
